Experimental data as given in the nanobody polyreactivity screen of Harvey et al. (2022).

Assay: yeast display, Sf9 membrane polyspecificity reagent, FACS + sequencing; frameworks hold sequencing errors
Outline: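 Nanobodies came from a synthetic yeast display library in Saccharomyces cerevisiae BJ5465, induced with galactose for 36–48 hours and stained for 1 hour at 4 °C with 10% biotinylated, detergent-solubilized Sf9 membrane reagent. Cells were enriched on streptavidin microbeads and then FACS-sorted, with low and high (top ~1%) gates set on anti-HA fluorescence for expression and streptavidin fluorescence for reagent binding. Each polyreactivity label reflects the gate a clone came from. Genes were amplified by colony PCR, sequenced by MiSeq 2 × 250 and filtered by CDR length.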

In the case of “QVQLVESGGGLVQAGGSLRLSCAASGNIFKVNTMGWYRQAPGKERELVAAINRSGGRPYYADSVKGSFTISRDNAKNTVYLQMNSLKPEDTAVYYCATRVHKSTHGYDYWGQGTQVTVSS”, the “polyreactivity (PSR sort gate)” value is reported as “high polyreactivity”.
In the case of “QVQLVESGGGLVQAGGSLRLSCAASGSTFYYNAMGWYRQAPGKERELVAAITSSGGRTYYADSVKGRFTISRDNAMNTVYLQMNSLKPEDTAFYYCAKREASSRWPYDYWGQGTQVTVSS”, the “polyreactivity (PSR sort gate)” value is reported as “low polyreactivity”.
In the case of “QVHLVESGGGLVQAGGSLRLSCAASGTIFGINAMGWYRQAPGKERELVAGITSGGSTYYADSLKGRFTISRDNAKNTVDLQMNILKPEDTAVYYCAAVANQWYTEREYWGQGTQVTVSS”, the “polyreactivity (PSR sort gate)” value is reported as “low polyreactivity”.
With “QVQLVESGGGLVQAGGSLRLSCAASGFTFWGYTMGWYRQAPGKERELVAAITSTGSTYYAYSVKGRFTISRDNAKNTVYLQMNSLKPEDTSVYYCATARSYLTYSYHYDYWGQGTQVTVSS” the “polyreactivity (PSR sort gate)” value was “low polyreactivity”.
With “QVQLVDSGGGLVQAGGSLPLSCAASGSILLPYAMGWYRQAPGKERELVAALSQRGGSTYYADSVKGRFTISRDNAKNTVYLQMNSLKPEDTAVYYCNAVGGEHTPSQAFAGYDYWGQGTQVTVSS” the “polyreactivity (PSR sort gate)” value was “low polyreactivity”.
For “QVQLVESGGGLVQAGGSLRLSCAASGITFVQYAMGWYRQAPGKERELVAAITSDGRTYYADSVKGRFTISRDNAKNTVYLQMNSLKREDTAVYYCAADVWRYTAYGGAYRRDYWGQGTQVTVSS”, the “polyreactivity (PSR sort gate)” value was “low polyreactivity”.
With “QVQLVESGGGLVQAGGSLRLSCAASGSTFVRYAKGWYRQAPGKERELVAGISRRSGRTYYADSVKGRFTISRDNAKNTVYLQMNSLKPEDTAVYYCAARGIGGYEYWGQGTQVTVSS” the “polyreactivity (PSR sort gate)” value was “high polyreactivity”.
For “QVQHVESGGGLVQAGASLRLSCAASGFIFPSYVKGWYRQAPWKERDLVATISRSGGSTYYADSVKGRFTISRDNAKNTVYLQMNSLKPEDTAVYYCAAYPYSYLQLMDYWGQGTQVTVSS”, the “polyreactivity (PSR sort gate)” value was “high polyreactivity”.
In the case of “QVQLVESGGGLVQAGGSLRLSCAASGRIISVYAMGWYRQAPGKERELVATITGGNTNYADSVKGRFTISRDNAKNTVYLQMNSLKPEDTAVYYCANQFLPSGVYYEYDSWGQGTQVTVSS”, the “polyreactivity (PSR sort gate)” value is reported as “low polyreactivity”.
With “QVQLVESGGGLVQAGGSLRLSCAASGRIFVDNAMGWYRQAPGKERELVAAITGGGSTYADSVKGRFTISRDNAKNTVYLQMNSLKPEDTAVYYCAADLWSVPFTVYTFGIFYYWGQGTQVTVSS” the “polyreactivity (PSR sort gate)” value was “low polyreactivity”.
With “QVQLVESGGGLVQAGGSLRLSCAASGSIFSTYAMGWSRQAPGKERELVAAITTSGGRTYYADSVKGRFTISRDNAKNTVYLQMNSLKPEDTAVYYCNAVRGGRYGLDYWGQGTQVTVSS” the “polyreactivity (PSR sort gate)” value was “high polyreactivity”.
With “QVQLVESGGGLVQAGGSLRLSCAASGNIFYKYAMGWYRQAPGKERELVAAITWRVVRTYYADSVKGRFTISRDNAKNTVYLQMNSLKPEDTAVYYCAALSRQSGDYWGQGTQVTVSS” the “polyreactivity (PSR sort gate)” value was “high polyreactivity”.
In the case of “QVQLVESGGGLVQAGGILRLSCASSVTFFMGWYRQAPGKEWELVAGISISDVSTYYADSVKGRFTISRDNAKNTVYLQMNSLKPEDTAVYYCAAEFYPTTGFDYWGQGTQVTVSS”, the “polyreactivity (PSR sort gate)” value is reported as “low polyreactivity”.
In the case of “QVQLVESGGGLVQAGGSLRLSCAASGRTSSINAMGWYRQAPGKERELVAVITGGGRTSYADSVKGRFTISRDNAKNTVDLQMNSLIPEDTAVYYCNATRSYYGYYYWGQGTQVTVSS”, the “polyreactivity (PSR sort gate)” value is reported as “high polyreactivity”.
With “QLHLQVSGGGLVQAGGSLRLSCAASGSIFLTSEKGWYRQAPGKERELVAAIATGTSTNYADSVKGRFTISRDNAKNTVYLQLNSLKPEDTAVYYCATYDYWGQGTKVTVSS” the “polyreactivity (PSR sort gate)” value was “low polyreactivity”.
With “QVQLVESGGGLVQAGGSLRLSCAASGSTFVYYAMGSYIQAPGKERELVAAISSGGNTKYADSVKGRFTISRDNAMNTVYLHMNRLKPEDTAVYYCARETQSYFDHDYWGQGTQVTVSS” the “polyreactivity (PSR sort gate)” value was “low polyreactivity”.
For “QVQLEESGGGLVQAGGSLRLSCAASGRTFVYNAMGWYRQAPGKERELVAAITSGGRTYYADSVKGRFTISRDNAKNTVYLQMNSLKPEDTAVYYCAADHRGEYDYWGQGTQVTVSS”, the “polyreactivity (PSR sort gate)” value was “low polyreactivity”.
For “QVQLVESGGGLVQAGGSLRLSCDASGSTLVVNAMGWYRPAPGKERELVAAISDGGSTNYADSVKGRFTISRDNAMNTVYLQMNSLKPEDTADYYCAKDCETEVIDDYWGQGTQVTVSS”, the “polyreactivity (PSR sort gate)” value was “low polyreactivity”.
With “EVQLVESGAGLVQAVGSLRLSCYASGFIFGYNAMGWYRQAHGKERELVAAISSGGGNTYYADSVKGRFTISRDNAKNTVYLQMNSLKPEDTAVYYCAAPDPRRPRRGDSWGQGTQVTVSS” the “polyreactivity (PSR sort gate)” value was “low polyreactivity”.
In the case of “QVQLVESGGGLVQAGGSLRLSCAASGRTFLWYTMGWYRQAPGKERELVAAISGSGGSTYYADSVKGRFTISRDNAKNTVYLQMNSLKPEDTAVYYCNAVRGYRYDYWGQGTQVTVSS”, the “polyreactivity (PSR sort gate)” value is reported as “high polyreactivity”.
In the case of “QVQLVESGGALVQAGGSLRLSCAASGSIFGSYALGWYRQAPGKERELVASITRVDSTNYADSVKGRFTISRDNAKNTVYLQMNSLKPEDTAVYYCAADITSPAYATYDYWGQGTQVTVSS”, the “polyreactivity (PSR sort gate)” value is reported as “low polyreactivity”.
With “QVQLVDSGGGLLQAGGSLRLSCAASGSTFVAYAMGWYRQAPGKEREFVAGISSSTGGTRYADSVKGRFTISRDNAKNTVYLQMNSLKPEDSAVYYCAADLYFYYVWIRVYWGQGTQVTVSS” the “polyreactivity (PSR sort gate)” value was “low polyreactivity”.
With “QVQLVESGGGLVQAGGSLRLSCADSGSTFTVYVMGWYRQAPGKETEFVAAITRIGGSTYYADSVKGRFTISRDYAKNTVYLQRNCLKTEDTAVYYCATYHTNSYYQLLYDYWGQGTQVTVSS” the “polyreactivity (PSR sort gate)” value was “low polyreactivity”.
With “QVQLVESGGGLVQAGGSLRLSCGASGSTFAYYTMGWYRQAPAKERELVAAITSGGRTSYAESVKGRFTISRDNAKNTVYLQMNSLKPEDTAVYYCAKGRKPGYYYWGQGTQVTVSS” the “polyreactivity (PSR sort gate)” value was “high polyreactivity”.
With “QVQLVESGGGLVQAGGSLRLSCAASGLIFYKYAMGWYRQAPGKERELVASISTGGGSTYYADSVKGRFTISRDNAKNTVYLQMNSLKPEDTAVYYCAARWWRRFRGSHSLYDYWGQGTQVTVSS” the “polyreactivity (PSR sort gate)” value was “high polyreactivity”.
For “QVQHVESAGGLVQAGGSLPLRCAASGSTFSPNALGGYSHAHGKERELVARITRSGSRTSYADSLKGRFTISRDNAKNPVYFQMNSLKPEDTAVYYCAAEGPKQYDYWGQGTHVTVSS”, the “polyreactivity (PSR sort gate)” value was “low polyreactivity”.
In the case of “QVQLVESGGGLVQAGGSLRLSCAASGIIFEYYAMGWSRPAPGKERQLVAAISSSGGSTYYADSVKVRFTISRDNAKNTVYLQMNSLKPEDTAVYYCATRYAASTSRWQYYYWGQGTQVTVSS”, the “polyreactivity (PSR sort gate)” value is reported as “high polyreactivity”.
For “QDQLVESGGGLVQAGGTLRLRCAATGSTVYPTYAMGWYRQAPGKEWELVATITGSGGYTYYADSVKGRFTISRDNAKNTVYLQINSLKPEDTAVYYCAADRWYSRYTRYGYRGQGTQVTVSS”, the “polyreactivity (PSR sort gate)” value was “low polyreactivity”.
In the case of “QVQLVESGGGLVQAGGSLRLTCAASGFIFGSYSMGWYRQAPGKERELVAAITSGGSTYYADSVKGRFTISRDNAKNTVYLQMNSLKPEDTAVYYCAKYHWRLSFSRYPYDYWGQGTQVTVSS”, the “polyreactivity (PSR sort gate)” value is reported as “high polyreactivity”.
For “QVQLVESGGGLVQAGGSLRLSCAASGSTFGLYAMGWYRQAPGKERELVADITWSGGSTYYADSVKGRFTISRDNAKNTVYLQMNSLKPEDTAVYYCAADGYDQYPLWAPPGDYWGQGTQVTVSS”, the “polyreactivity (PSR sort gate)” value was “low polyreactivity”.
For “QVQLVESGGGLVQAGGSLRLSCAASGFIFVYYAMGWYRQAPGKERELVAAISSRGGSTYYADSVKRRFTISRDNAKNTVYLQMNSLKPEDTAVYYCAARPSSRRYGTIMDYWGQGTQVTVSS”, the “polyreactivity (PSR sort gate)” value was “high polyreactivity”.
In the case of “HVQLVESGGGLVQAGGSLRLSCAASGIIFYYYTMGWYRPGPRKERELLAWSGGNTYYADSVKGRFTISRDNAKNTVYLQMNSLKPEDTAVYYCNALAIWSDDWDHWISYADDYWGQGTQVTVSS”, the “polyreactivity (PSR sort gate)” value is reported as “low polyreactivity”.
For “QVQLVESGGGLVQAGGSLRLSCAASGSTSLFYAMGWYRQAPGKERELVAGITNTARTYADSVKGRFTISRDNAKNTVYLQMKSLKPEDTAVYYCATGYNRWRPTFPFYYWGLGTQVTVSS”, the “polyreactivity (PSR sort gate)” value was “high polyreactivity”.
In the case of “QVQLVESGGGLVQAGGSLLLSCAPSGRTFPLNAMGWSRQAPGKERELVAAITWSGGRTYYADSVKGRFTISRDNAKNTVYLQMNSLKPEDTAVYYCAAKRTTWKIQSGYDYWGKGTQVTVSS”, the “polyreactivity (PSR sort gate)” value is reported as “low polyreactivity”.
In the case of “QVQLVESGGGLVQAGGSLRLSCAASGRTLFPNVMGWYRQAPRQERELFAAITTIGGSTYYADSVKGRITISRDNAKNTVFLQMNSLKPEDTEVYYCNARYRGRGLKFGYWGQGTQVTVSS”, the “polyreactivity (PSR sort gate)” value is reported as “high polyreactivity”.
With “QVQLVESGGGLVQAGGSLRLSCAASGRTFDWYAMGWYRPAPGKERELVAAISRSGGSTYYADSVKGRFTISLDNAKNTVYLQMNSLKPEDTAVYYCAKRYAPDSRYYYWGQGTQVTVSS” the “polyreactivity (PSR sort gate)” value was “high polyreactivity”.
For “QVQLVESGGGLVQAGGSLRLSCAASGSIFEVYAMGWYRQAPGKERELVAAISGNGGSTYADSVKGRFTISRDNAKNTVYLQMNSLKPEDTAVYYCAAVPYGYGLASDSIFDYWGQGTQVTVSS”, the “polyreactivity (PSR sort gate)” value was “high polyreactivity”.
In the case of “QVQLVESGGGLVQAGGSLRLSCAASGFIFDRNTMGWYRQAPGKERELVAAISRSGGSTYYADSVKGRFTISRDNAKNTVYLQMNSLKPEDTAVYYCAALYYYRNRSYDYWGQGTQVTVSS”, the “polyreactivity (PSR sort gate)” value is reported as “high polyreactivity”.
For “QVQLQESGGGLVQAGGSLRLSCAASGTITVLYKMGWFRQAPGKEREFVASINYGTRTYYADSVKGRFTVSRDSAKNTVYLQMNSLKPEDTAVYYCAAAYRWQDVYRYWGQGTQVTVSS”, the “polyreactivity (PSR sort gate)” value was “low polyreactivity”.
With “QVQLVESGGGLVQAGGSLRLSCAASGSTFSQNAMGWYRQAPGKERELVAVISSSGGRTNYADSVKGRFTISRDNAKNTVYLQMNSLKPEDTAVYYCAKRLRVLYYYWGQGTQVTVSS” the “polyreactivity (PSR sort gate)” value was “high polyreactivity”.
In the case of “QVQLVESGGGLVQAGGSLRLSCAASGRTFTPNAMGWYRQAPGKERELVAAITSTGGRTYYADSVKGRFTISRDNAKNTVYLQMNSLKPEDTAVYYCAVSYRYLRKYGYWGQGTQVTVSS”, the “polyreactivity (PSR sort gate)” value is reported as “high polyreactivity”.
With “QVQLVESGGGLVQAGGSLRLSCAASGSTFTPNAMGWYRQAPGKERELVAAITTRGSSTYYADSVKGRFTISRDNAKNTVYLQMNSLKPEDTAVYYCNAGVTFRRYDYWGQGTQVTVSS” the “polyreactivity (PSR sort gate)” value was “high polyreactivity”.
With “QVQLVESGGGLVQAGGSHRLSCAASGFTFVTYAMGWYRQAPGKERELVATISWGGGGTYYADSVKGRFTMSRDNAKNTVYFQLNSLKPEDTAVYYCAADNCYHYNFDYWGQGTQVTVSS” the “polyreactivity (PSR sort gate)” value was “low polyreactivity”.
